One may read the EC50 as the concentration that produces a half-maximal response.

Experiment [1] addresses NanoLuc:VEGFR2 fusion on cells (UniProt P35968). The experiment is described as follows: FRET or BRET; saturation binding on live HEK293T cells transiently expressing a NanoLuc:RTK fusion; increasing concentrations of DY605-labeled growth factor with and without excess (0.5 µM) unlabeled equivalent; 1.5 h at room temperature, OptiMEM; apparent affinities (EC50). Background: BRET reads energy transfer from a luciferase to a nearby fluorophore.

Experiment [2] shares this target.

Sequence of NanoLuc:VEGFR2 fusion on cells (P35968 20-1356): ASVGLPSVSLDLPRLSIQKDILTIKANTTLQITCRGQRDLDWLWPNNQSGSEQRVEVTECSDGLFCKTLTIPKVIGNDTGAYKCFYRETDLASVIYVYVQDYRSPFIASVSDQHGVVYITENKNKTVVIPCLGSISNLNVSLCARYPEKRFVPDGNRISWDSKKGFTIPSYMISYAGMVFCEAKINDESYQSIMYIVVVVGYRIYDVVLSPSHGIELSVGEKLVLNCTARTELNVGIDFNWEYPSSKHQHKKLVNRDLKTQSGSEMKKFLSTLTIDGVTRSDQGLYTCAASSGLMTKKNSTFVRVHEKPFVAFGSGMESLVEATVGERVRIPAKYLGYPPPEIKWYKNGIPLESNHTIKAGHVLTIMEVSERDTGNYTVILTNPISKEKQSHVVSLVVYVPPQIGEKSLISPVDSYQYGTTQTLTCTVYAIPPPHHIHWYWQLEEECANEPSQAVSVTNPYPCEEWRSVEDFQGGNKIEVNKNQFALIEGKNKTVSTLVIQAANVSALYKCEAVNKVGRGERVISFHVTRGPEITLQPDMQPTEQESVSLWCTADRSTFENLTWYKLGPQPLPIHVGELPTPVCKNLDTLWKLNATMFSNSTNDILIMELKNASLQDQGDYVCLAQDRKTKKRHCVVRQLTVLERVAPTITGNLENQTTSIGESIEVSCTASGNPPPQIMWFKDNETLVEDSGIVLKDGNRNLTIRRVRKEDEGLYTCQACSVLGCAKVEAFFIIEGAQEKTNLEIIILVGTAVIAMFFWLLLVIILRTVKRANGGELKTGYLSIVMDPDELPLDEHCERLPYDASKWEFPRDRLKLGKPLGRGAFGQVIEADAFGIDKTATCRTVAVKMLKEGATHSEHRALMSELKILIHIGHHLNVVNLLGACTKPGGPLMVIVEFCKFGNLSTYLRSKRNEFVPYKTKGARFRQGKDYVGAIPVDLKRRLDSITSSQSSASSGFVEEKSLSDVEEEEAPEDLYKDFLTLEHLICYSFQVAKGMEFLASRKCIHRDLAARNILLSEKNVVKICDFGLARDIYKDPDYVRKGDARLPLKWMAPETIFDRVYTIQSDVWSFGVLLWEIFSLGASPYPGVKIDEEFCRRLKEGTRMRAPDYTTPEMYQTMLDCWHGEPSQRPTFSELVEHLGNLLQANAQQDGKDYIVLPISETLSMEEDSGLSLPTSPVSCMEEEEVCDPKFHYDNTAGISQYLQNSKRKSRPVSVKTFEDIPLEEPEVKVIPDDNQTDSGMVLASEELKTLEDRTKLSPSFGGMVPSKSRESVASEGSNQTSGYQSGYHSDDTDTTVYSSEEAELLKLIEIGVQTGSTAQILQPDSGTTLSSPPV

With “CBT-labeled VEGF165a homodimer (vascular endothelial growth factor isoform VEGF165a labeled with DY605-PEG-CBT on the N-terminal cysteine) (ligand)”, the EC50 in experiment [1] was determined as 0.045 nM.
Consider “VEGF165a homodimer labeled with 2-fold molar excess of DY605-NHS-ester (ligand)”, for which the NFAT-luciferase reporter, 6 h stimulation; EC50 as fold against the unlabeled counterpart (printed as 'fold lower', weaker response) in experiment [2] is above 120 fold. Moreover, the EC50 in experiment [1] was 1.2 nM.
With “VEGF165a homodimer labeled with 5-fold molar excess of DY605-NHS-ester (ligand)”, the NFAT-luciferase reporter, 6 h stimulation; EC50 as fold against the unlabeled counterpart (printed as 'fold lower', weaker response) in experiment [2] was above 120 fold. For the same substance, in experiment [1], the half-maximal effective concentration (EC50) was found to be 12 nM.

Source of the values: article PMC6504924.
